In PMC8413711, “Structure-based analyses of neutralization antibodies interacting with naturally occurring SARS-CoV-2 RBD variants” (Cell Research, 2021):

Biological target: T1, RBD-501Y.V2 (SARS-CoV-2, B.1.351 (501Y.V2) lineage …, K417N | E484K | N501Y)
T1 construct: also called K417N/E484K/N501Y ternary mutation; B.1.351 lineage RBD
Test: SPR
Settings: both partners purified

| Binder | fold reduction of binding affinity against RBD [fold] |
| --- | --- |
| BD-503 (antibody, V domains shown, also called BD-503 NAb) VH: EVQLVESGGGLIQPGGSLRLSCAASGLIVSSNYMSWVRQAPGKGLEWVSVLYAGGSTDYAGSVKGRFTISRDNSKNTLYLQMNSLRAEDTAVYYCARDAAVYGIDVWGQGTTVTVSS VL: not shown | > 3 |
| BD-623 (antibody, V domains shown) VH: EVQLVESGGGLVQPGGSLRLSCAASGFTVSSNYMSWVRQAPGKGLEWVSIIYSGGSTYYADSVKGRFTISRDNSKNTLYLQMNSLRAEDTAVYYCARDYAGRVWGQGTLVTVSS VL: QSALTQPASVSGSPGQSITISCTGTSSDVGSYNLVSWYQQRPGKAPKLILYEVTKRPSGVSNRFSGSKSGNTASLAISGLQAEDEADYYCCSYAGSSTWVFGGGTKLTVL | > 3 |
| BD-515 (antibody, V domains shown) VH: EVQLVESGGGLVQPGGSLRLSCAASEFIVSRNYMSWVRQAPGKGLEWVSVIYSGGSTFYADSVKGRFTISRDNSKNTLYLQMNSLRAEDTGVYYCARDRGLVSDYWGQGTLVTVSS VL: DIQMTQSPSSLSASVGDRVTITCQASQDINKYLNWYQQKPGKAPKLLIFDASHLETGVPSRFSASGSGTDFTFTISSLQPEDIATYYCHQYDNLPRTFGQGTRLEIK | > 3 |
| BD-604 (antibody, V domains shown) VH: EVQLVESGGGLIQPGGSLRLSCAASGIIVSSNYMTWVRQAPGKGLEWVSVIYSGGSTFYADSVKGRFTISRDNSKNTLYLQMSSLRAEDTAVYYCARDLGPYGMDVWGQGTTVTVSS VL: DIQLTQSPSFLSASVGDRVTITCRASQGISSDLAWYQQKPGKAPNLLIYAASTLQSGVPSRFSGSGSGTEFTLTISSLQPEDFATYYCQQLNSDLYTFGQGTKLEIK | 60 |
